The target of test [1] is T1, Escherichia coli sliding clamp (bacterial processivity factor, dnaN gene product) (Escherichia coli), P0A988. Kind of test: kinITC.
For test [2], the target named is T1, Escherichia coli sliding clamp …. As to the kind of experiment: ITC, 25 C. Background: In ITC the heat of successive injections is recorded.
For test [3], the target named is Acinetobacter baumannii sliding clamp (Acinetobacter baumannii). As to the kind of experiment: ITC, 25 C.
Test [4] has as its target T1, Escherichia coli sliding clamp …. As to the kind of experiment: ITC, 25 C. The source holds these as a separate data set.
In test [5] the target is T2, Pseudomonas aeruginosa sliding clamp (Pseudomonas aeruginosa), Q9I7C4.
T2 chain: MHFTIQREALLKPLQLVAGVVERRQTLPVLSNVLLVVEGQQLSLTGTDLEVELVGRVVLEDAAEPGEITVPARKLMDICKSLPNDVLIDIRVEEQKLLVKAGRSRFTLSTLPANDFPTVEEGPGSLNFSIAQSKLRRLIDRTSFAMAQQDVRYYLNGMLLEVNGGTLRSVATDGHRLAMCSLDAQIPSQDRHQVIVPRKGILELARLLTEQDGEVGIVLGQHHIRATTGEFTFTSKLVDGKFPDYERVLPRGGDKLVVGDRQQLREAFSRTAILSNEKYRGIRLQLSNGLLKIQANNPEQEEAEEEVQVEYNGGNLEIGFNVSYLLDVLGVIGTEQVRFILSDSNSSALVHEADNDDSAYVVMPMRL
Kind of test: ITC, 25 C.

This note sets out measurements from patent US20230312646A1, “ANTIBACTERIAL PEPTIDES” (priority 2020, published 2023).

Where two headings read alike, the source gives them in different places. Square brackets hold non-standard residues; d marks the D form. Cha = N[C@@H](CC1CCCCC1)C(=O)O

What is called koff is the first-order rate constant of dissociation. Low values mean slow dissociation, high ones fast dissociation. The kon is the second-order rate constant of association. Usually Kd stands for the constant that tells how readily two partners part at equilibrium. Take Ac-Q[Cha]DLF-OH [Ac-Gln-Cha-Asp-Leu-Phe-OH (peptide 1)]: the koff in test [1] worked out at 0.0074 s⁻¹. The kon in test [1] is 40000 M⁻¹ s⁻¹. Further, the Kd came out at 194 nM in test [2], 655 nM in test [3], 170 nM in test [4] and 600 nM in test [5]. In addition, in test [2], the ΔG was -9.2 kcal/mol.
